Data from patent US20250011363A1, “OPTIMIZED SHORTENED PEPTIDE THAT BINDS TO ACETYLCHOLINE RECEPTOR, AND USE THEREOF” (SKINMED CO., LTD., priority 2021, published 2025).

Key:
acetylcholine receptor [1] = experiment: SPR, AchR immobilised on chip, peptide at 10 uM
acetylcholine receptor [2] = experiment: SPR, AchR immobilised on CM5 chip, peptide at 10 uM

| Binder | Binding affinity (acetylcholine receptor [1]) | Binding affinity (RU) (acetylcholine receptor [2]) |
| --- | --- | --- |
| KLITRR [6mer-2-275] | 135 RU |  |
| KWRSRK [6mer-2-272] | 154 RU |  |
| KWVQRK [6mer-2-269] | 123 RU |  |
| KKWQQK [6mer-1-453] |  | 154 RU |
| KGQRKK [6mer-2-281] | 149 RU |  |
| RSLSRR [6mer-2-297] | 139 RU |  |
| KLRSKR [6mer-2-284] | 151 RU |  |
| KLRTKR [6mer-2-274] | 148 RU |  |
| RLFQKK [6mer-2-271] | 131 RU |  |
| RRIQRR [6mer-2-285] | 142 RU |  |
| RKLLCR [6mer-1-457] |  | 121 RU |
| RLRYRK [6mer-2-277] | 128 RU |  |
| KWYRRK [6mer-2-296] | 135 RU |  |
| KSRLRK [6mer-2-288] | 122 RU |  |
| RKQILK [6mer-1-462] |  | 126 RU |
| RRGFYR [6mer-1-460] |  | 148 RU |
| KRRYKK [6mer-2-286] | 139 RU |  |
| KLISKR [6mer-2-283] | 148 RU |  |
| RRGYTR [6mer-1-461] |  | 142 RU |
| RLYLKR [6mer-2-287] | 124 RU |  |
| KSLQRK [6mer-2-279] | 148 RU |  |
| RQLCKR [6mer-2-292] | 121 RU |  |
| RKGQLK [6mer-1-1458] |  | 139 RU |
| RRVFYK [6mer-1-455] |  | 126 RU |
| KSIYRR [6mer-2-280] | 153 RU |  |

| Binder | Binding affinity (acetylcholine receptor [1]) | Binding affinity (RU) (acetylcholine receptor [2]) |
| --- | --- | --- |
| KQQSKR [6mer-2-293] | 153 RU |  |
| RRWVYK [6mer-1-459] |  | 131 RU |
| RKVRLR [6mer-1-451] |  | 153 RU |
| RQQYRK [6mer-2-282] | 151 RU |  |
| RLLQKK [6mer-2-289] | 146 RU |  |
| RQIQKK [6mer-2-278] | 135 RU |  |
| RRYRKR [6mer-2-291] | 154 RU |  |
| KLYYRR [6mer-2-294] | 135 RU |  |
| KRGYQK [6mer-1-467] |  | 121 RU |
| KRSFRK [6mer-1-463] |  | 153 RU |
| RKRFSR [6mer-1-448] |  | 141 RU |
| RKVLRR [6mer-1-454] |  | 124 RU |
| RRGQYR [6mer-1-456] |  | 153 RU |
| RLVCRK [6mer-2-276] | 153 RU |  |
| KRGRCK [6mer-1-449] |  | 135 RU |
| RKQVYK [6mer-1-465] |  | 154 RU |
| KVRYKK [6mer-2-295] | 145 RU |  |
| RKVVYK [6mer-1-450] |  | 151 RU |
| KSRLRR [6mer-2-270] | 148 RU |  |
| KRLYTR [6mer-1-452] |  | 141 RU |
| KWICKK [6mer-2-298] | 149 RU |  |
| KLRQRR [6mer-2-273] | 131 RU |  |
| RRQRLK [6mer-1-464] |  | 131 RU |
| RQLYRK [6mer-2-290] | 135 RU |  |
| KRSICR [6mer-1-466] |  | 148 RU |

Second part, the binder after the results:

| Binding affinity (acetylcholine receptor [1]) | Binding affinity (RU) (acetylcholine receptor [2]) | Binder |
| --- | --- | --- |
| 127 RU |  | KQYCKK [6mer-2-314] |
| 148 RU |  | KQICKK [6mer-2-302] |
| 141 RU |  | RQFQKR [6mer-2-306] |
| 142 RU |  | RGFYKK [6mer-2-326] |
| 141 RU |  | RWYYRK [6mer-2-299] |
| 135 RU |  | RGLYKR [6mer-2-317] |
| 154 RU |  | RWRTKR [6mer-2-313] |
| 141 RU |  | RLRSKK [6mer-2-307] |
| 137 RU |  | RSRQRK [6mer-2-319] |
| 139 RU |  | KLQSRK [6mer-2-324] |
| 148 RU |  | RRYSRR [6mer-2-322] |
| 139 RU |  | RRQRRR [6mer-2-315] |
| 153 RU |  | RWRLKK [6mer-2-300] |
| 142 RU |  | RVFSRK [6mer-2-325] |
| 148 RU |  | RQYRRK [6mer-2-320] |
| 139 RU |  | KGIRRR [6mer-2-316] |
| 153 RU |  | KGLRKR [6mer-2-327] |
| 121 RU |  | KWRTKR [6mer-2-312] |
| 154 RU |  | KQFYKK [6mer-2-305] |
| 149 RU |  | KLFQRK [6mer-2-310] |
| 145 RU |  | RGIQKK [6mer-2-318] |
| 122 RU |  | RQVRKR [6mer-2-301] |
| 145 RU |  | KVLLRK [6mer-2-323] |
| 126 RU |  | KVFTKR [6mer-2-303] |
| 151 RU |  | KRRRRR [6mer-2-309] |
| 148 RU |  | KGISKR [6mer-2-308] |
| 139 RU |  | KLVSRK [6mer-2-321] |
| 144 RU |  | KWFYRK [6mer-2-304] |
| 147 RU |  | KVVTRK [6mer-2-311] |
